Laboratory results from patent CN116262788A (TAIZE HUIKANG BIOMEDICAL CO LTD; BEIJING MIANYI FANGZHOU …, dated 2023).
Residue numbers refer to the chain shown, from its start. In names and notes the source's numbering stands. Blank lines part the entries; values can stand above or below the binder they belong to.

How the values were obtained:
[1] = biological target: T1, 人CD27 (稳定表达人CD27的细胞系 HEK::CD27 细胞) (human, UniProt P26842 20-260); experiment: flow cytometry on HEK::CD27 cells, 10 ng and 100 ng antibody
T1 construct: whole, on cells; also called hCD27; 表达hCD27的细胞
T1 sequence (looked up): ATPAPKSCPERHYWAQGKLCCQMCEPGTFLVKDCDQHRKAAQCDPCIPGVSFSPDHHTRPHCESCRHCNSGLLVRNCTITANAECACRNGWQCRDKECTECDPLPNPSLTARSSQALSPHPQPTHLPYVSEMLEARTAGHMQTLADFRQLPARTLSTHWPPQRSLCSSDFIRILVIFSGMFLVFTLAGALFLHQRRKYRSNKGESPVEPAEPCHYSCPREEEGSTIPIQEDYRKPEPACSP

[2] = biological target: 人CD27 (稳定表达人CD27的细胞系 HEK::CD27 细胞) (human) (UniProt P26842); experiment: flow cytometry on cells expressing human CD27
[3] = biological target: T2, 人CD27蛋白 (Cat: 10039-H03H, Sino Biological Inc.) (human, UniProt P26842 21-192); experiment: SPR (Reichert4), human CD27 protein on chip, antibody as analyte, curve 1.25e-8
T2 construct: Bought protein coated on the SPR chip
T2 sequence (looked up): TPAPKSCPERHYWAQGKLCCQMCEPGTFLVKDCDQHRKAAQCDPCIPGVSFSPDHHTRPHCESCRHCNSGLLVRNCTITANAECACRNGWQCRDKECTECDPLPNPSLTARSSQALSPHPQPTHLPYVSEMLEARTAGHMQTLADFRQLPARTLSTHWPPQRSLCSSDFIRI

[4] = biological target: T2, 人CD27蛋白 (Cat: 10039-H03H, Sino …); experiment: SPR (Reichert4), human CD27 protein on chip, antibody as analyte, curve 2.50e-8
[5] = biological target: T2, 人CD27蛋白 (Cat: 10039-H03H, Sino …); experiment: SPR (Reichert4), human CD27 protein on chip, antibody as analyte, curve 5.00e-8
[6] = biological target: T2, 人CD27蛋白 (Cat: 10039-H03H, Sino …); experiment: SPR (Reichert4), human CD27 protein on chip, antibody as analyte, curve printed 625e-9
[7] = biological target: T2, 人CD27蛋白 (Cat: 10039-H03H, Sino …); experiment: SPR (Reichert4), human CD27 protein on chip, antibody as analyte, curve 6.25e-9

B1: Hu6D8-5 (antibody, human IgG4, V domains shown)
VH: EVQLVQSGAEVKKPGASVKVSCKASGYTFTNYGMNWVRQAPGQGLKWMGWINTNTGEPTYADDFKGRVTMTLDTSISTAYMELSRLRSDDTAVYYCAREGDGFDSWGQGTTVTVSS
VL: QIVLTQSPDFQSVTPKEKVTITCSATSSVNYMHWYQQKPDQSPKRWIYDTSRLASGVPSRFSGSGSGTDYTLTINSLEAEDAATYYCQQWNTNPWTFGGGTKVEIK
- binding result [1]: binds

B2: Hu6D8-1 (antibody, human IgG4, V domains shown)
VH: B1 VH
VL: B1 VL with Q1E, W46L
- binding result [1]: binds

B3: Hu6D8-3 (antibody, human IgG4, V domains shown)
VH: B1 VH
VL: B1 VL with W46L
- binding result [1]: binds

B4: Hu6D8-4 (antibody, human IgG4, V domains shown)
VH: B1 VH
VL: B1 VL with I2F, W46L
- binding result [1]: binds

B5: Hu6D8-6 (antibody, human IgG4, V domains shown)
VH: B1 VH
VL: B1 VL with I2F
- binding result [1]: binds

B6: Hu6D8-12 (antibody, human IgG4, V domains shown)
VH: B1 VH with V68F, M70F
VL: B1 VL with I2F
- binding result [1]: binds

B10: Varlilumab (antibody, V domains shown)
VH: QVQLVESGGGVVQPGRSLRLSCAASGFTFSSYDMHWVRQAPGKGLEWVAVIWYDGSNKYYADSVKGRFTISRDNSKNTLYLQMNSLRAEDTAVYYCARGSGNWGFFDYWGQGTLVTVSS
VL: DIQMTQSPSSLSASVGDRVTITCRASQGISRWLAWYQQKPEKAPKSLIYAASSLQSGVPSRFSGSGSGTDFTLTISSLQPEDFATYYCQQYNTYPRTFGQGTKVEIKR
- Kd [3]: 0.00185 nM
- koff [3]: 2.14e-07 s⁻¹
- kon [3]: 116000 M⁻¹ s⁻¹
- Kd [4]: 0.00185 nM
- koff [4]: 2.14e-07 s⁻¹
- kon [4]: 116000 M⁻¹ s⁻¹
- Kd [5]: 0.00185 nM
- koff [5]: 2.14e-07 s⁻¹
- kon [5]: 116000 M⁻¹ s⁻¹
- Kd [7]: 0.00185 nM
- koff [7]: 2.14e-07 s⁻¹
- kon [7]: 116000 M⁻¹ s⁻¹

Now from value to binder:

- binding result [1]: binds
B7: Hu6D8-2 (antibody, human IgG4, V domains shown)
VH: B1 VH
VL: B1 VL with Q1E

- 结合率 [2]: > 85%
- Kd [3]: 0.514 nM
- koff [3]: 9.69e-05 s⁻¹
- kon [3]: 188000 M⁻¹ s⁻¹
- Kd [4]: 0.514 nM
- koff [4]: 9.69e-05 s⁻¹
- kon [4]: 188000 M⁻¹ s⁻¹
- Kd [5]: 0.514 nM
- koff [5]: 9.69e-05 s⁻¹
- kon [5]: 188000 M⁻¹ s⁻¹
- Kd [6]: 0.514 nM
- koff [6]: 9.69e-05 s⁻¹
- kon [6]: 188000 M⁻¹ s⁻¹
B8: 鼠抗人CD27单克隆抗体6D8 (antibody, V domains shown)
VH: QIQLVQSGPELKKPGETVKISCKASGYTFTNYGMNWVKQAPGKGLKWMGWINTNTGEPTYADDFKGRFAFSLETSATTAYLQINNLKNEDTATYFCAREGDGFDSWGQGTTLTVSS
VL: QFVLTQSPAIMSASPGEKVTMTCSATSSVNYMHWYQQKSGTSPKRWIYDTSRLASGVPARFSGSGSGTSYSLTISSMEAEDAATYYCQQWNTNPWTFGGGTKLEIK
notes: it is not clear whether they are whole chains or variable regions only; also called 6D8抗体

- binding result [1]: binds
B9: 6D8-G98A (人鼠嵌合抗体) (antibody, V domains shown)
VH: B8 VH with G102A
VL: B8 VL
